Laboratory results published in US5733879A, “Peptides and proteins, process for their preparation and their use as cholesterol acceptors” (N.V. Innogenetics, S.A., priority 1992, dated 1998).
Where no end group is shown, it is not given here.

Legend:
[1] = Electron microscopy size measurement of the lipid-peptide complexes; assay type: physicochemical; conditions: complex with DPPC, from electromicrographs
Method: Phospholipid-peptide complexes, at a protein concentration of 150 μg/ml, were negatively stained with a 20 g/l solution of potassium phosphotungstate (pH 7.4). 7 μl of the samples were applied to Formvar carbon-coated grids and examined in a Zeiss EM 10C transmission electron microscope operating at 60 kV. Particle size was determined by measuring 120 discrete particles for each sample. The mean diameter and the size distribution of the complexes were calculated.

[2] = Percentage of alpha-helix structure by ATR infrared spectroscopy; assay type: physicochemical; conditions: for percentage of alpha-helix structure, peptide, IR: free peptide; for percentage of alpha-helix structure, DMPC/peptide, IR: phospholipid-peptide (DMPC) complex
Text: Table 1: corresponds to the percentage of alpha-helix structure in the free peptide and in the phospholipid-peptide (DMPC) complexes as determined by infrared spectroscopy (IR) and circular dichroism (CD).
Attenuated Total Reflection (ATR) infrared spectroscopy was used for the determination of the relative orientation of the apolipoprotein alpha-helical segments and of the phospholipid acyl chains as previously described for apo AI and apo AI-phospholipid complexes and for LDL (Vanloo et at., 1991). For these measurements, a 70 μL solution of 20 μg isolated complex in a 0.005M Tris-HCl buffer pH 8.4, was spread on a ATR Germanium crystal plate. Deuteration of the sample was performed by flushing N2, saturated with D2 O, in a sealed universal Perkin-Elmer sample holder, at room temperature for 3 hours, in order to avoid overlapping of the absorption bands for random and alpha-helical structures.
Spectra were recorded on a Perkin Elmer 1720X infrared spectrophotometer, using polarized incident light with a perpendicular (90°) and parallel (0°) orientation. A dichroic spectrum was obtained by substracting the spectrum recorded with polarized light at 0° from that at 90°. A positive deviation on the dichroic spectrum indicates a dipole preferentially oriented close to a normal to the plane, while a larger absorbance at 0° is indicative of a dipole oriented close to the Ge crystal plane. The angle between a normal to the Ge crystal and the dipole is obtained from the calculation of the dichroic ratio Ratr =A(90°)/A(0°), representing the ratio of the absorbances on the spectra recorded with polarized light at 90° and 0° . For each experiment, up to 15 scans were stored and averaged.

Substance	Diameter MEAN ± SD [1] [Å]	percentage of alpha-helix structure, peptide, IR [2] [%]	percentage of alpha-helix structure, DMPC/peptide, IR [2] [%]
EWLEAFYKKVLEKLKELF [M4]	150 ± 25	35	58
EWLKAEYEKVEEKLKELF [M3]	175 ± 55	43	61
EWLKAEYEKVLEKLKELF [M2]	173 ± 45	36	50
EWLKAFYKKVLEKLKELF [M1]	209 ± 33	29	50
apo AI: native plasma apo AI purified from human plasma; major apoprotein constituent of HDL	128 ± 22	39	49
